Results published in article PMC2647307.

system: C.PvuII; assay: competition; conditions: scale: % loss of shifted WT band at 10-fold excess competitor

Substance | binding signal
Sym CAA/CAA 126-mer | 90
Sym CAA/CAT 126-mer | 90
Sym CAT/CAA 126-mer | 30
Sym CAT/CAT 126-mer | 30
